{"source": "patent US20220348620A1", "about": "(WISTAR INSTITUTE OF ANATOMY AND BIOLOGY, published 2022)", "binders": {"B1": {"name": "Flag-MFF1 Q241A (other, not shown: small tags and cut ends)", "chain": "MSKGTSSDTSLGRVSRAAFPSPTAAEMAEISRIQYEMEYTEGISQRMRVPEKLKVAPPNADLEQGFQEGVPNASVIMQVPERIVVAGNNEDVSFSRPADLDLIQSTPFKPLALKTPPRVLTLSERPLDFLDLERPPTTPQNEEIRAVGRLKRERSMSENAVRQNGQLVRNDSLWHRSDSAPRNKISRFQAPISAPEYTVTPSPQQARVCPPHMLPEDGANLSSARGILSLIQSSTRRAYQAILDVLDENRRPVLRGGSAAATSNPHHDNVRYGISNIDTTIEGTSDDLTVVDAASLRRQIIKLNRRLQLLEEENKERAKREMVMYSITVAFWLLNSWLWFRR", "notes": "also called mutant Flag-MFF Q241A"}, "B2": {"name": "Flag-MFF1 R225D (other, not shown: small tags and cut ends)", "chain": "B1 chain with R225D, A241Q", "notes": "also called mutant Flag-MFF R225D"}, "B3": {"name": "Flag-MFF1 R236D (other, not shown: small tags and cut ends)", "chain": "B1 chain with R236D, A241Q", "notes": "also called mutant Flag-MFF R236D"}, "B4": {"name": "MFF peptide #8 (Asp217-Leu246 of MFF1) (peptide)", "peptide": "DGANLSSARGILSLIQSSTRRAYQQILDVL", "notes": "also called MFF #8"}, "B5": {"name": "scrambled variant of MFF peptide 8#11 (peptide)", "peptide": "SSQLRYLARSQRITIQLIAGS", "notes": "Control peptide in ITC; also called MFF scrambled peptide"}, "B6": {"name": "Flag-MFF2 (other, human, UniProt Q9GZY8-2 1-291, looked up)", "chain": "MAEISRIQYEMEYTEGISQRMRVPEKLKVAPPNADLEQGFQEGVPNASVIMQVPERIVVAGNNEDVSFSRPADLDLIQSTPFKPLALKTPPRVLTLSERPLDFLDLERPPTTPQNEEIRAVGRLKRERSMSENAVRQNGQLVRNDSLVTPSPQQARVCPPHMLPEDGANLSSARGILSLIQSSTRRAYQQILDVLDENRRPVLRGGSAAATSNPHHDNVRYGISNIDTTIEGTSDDLTVVDAASLRRQIIKLNRRLQLLEEENKERAKREMVMYSITVAFWLLNSWLWFRR", "notes": "not shown: Flag tag"}, "B7": {"name": "MFF peptide #8-11 (Ser223-Leu243 of MFF1), wild type (peptide)", "peptide": "SARGILSLIQSSTRRAYQQIL", "notes": "Plain synthetic peptide (not the cell-permeable form) as used in ITC; also called WT MFF peptide #8-11; MFF (L) peptide #8-11"}, "B8": {"name": "Flag-MFF5 (other, human, UniProt Q9GZY8-5 1-238, looked up)", "chain": "MAEISRIQYEMEYTEGISQRMRVPEKLKVAPPNADLEQGFQEGVPNASVIMQVPERIVVAGNNEDVSFSRPADLDLIQSTPFKPLALKTPPRVLTLSERPLDFLDLERPPTTPQNEEIRAVGRLKRERSMSENAVRQNGQLVRNDSLPVLRGGSAAATSNPHHDNVRYGISNIDTTIEGTSDDLTVVDAASLRRQIIKLNRRLQLLEEENKERAKREMVMYSITVAFWLLNSWLWFRR", "notes": "also called Flag-MIFFS (misprint in legend); not shown: Flag tag"}}, "key": {"[1]": {"target": "T1, hexokinase-II (HK-II), endogenous in PC3 cells (human, UniProt P52789 1-917)", "T1 sequence (looked up)": "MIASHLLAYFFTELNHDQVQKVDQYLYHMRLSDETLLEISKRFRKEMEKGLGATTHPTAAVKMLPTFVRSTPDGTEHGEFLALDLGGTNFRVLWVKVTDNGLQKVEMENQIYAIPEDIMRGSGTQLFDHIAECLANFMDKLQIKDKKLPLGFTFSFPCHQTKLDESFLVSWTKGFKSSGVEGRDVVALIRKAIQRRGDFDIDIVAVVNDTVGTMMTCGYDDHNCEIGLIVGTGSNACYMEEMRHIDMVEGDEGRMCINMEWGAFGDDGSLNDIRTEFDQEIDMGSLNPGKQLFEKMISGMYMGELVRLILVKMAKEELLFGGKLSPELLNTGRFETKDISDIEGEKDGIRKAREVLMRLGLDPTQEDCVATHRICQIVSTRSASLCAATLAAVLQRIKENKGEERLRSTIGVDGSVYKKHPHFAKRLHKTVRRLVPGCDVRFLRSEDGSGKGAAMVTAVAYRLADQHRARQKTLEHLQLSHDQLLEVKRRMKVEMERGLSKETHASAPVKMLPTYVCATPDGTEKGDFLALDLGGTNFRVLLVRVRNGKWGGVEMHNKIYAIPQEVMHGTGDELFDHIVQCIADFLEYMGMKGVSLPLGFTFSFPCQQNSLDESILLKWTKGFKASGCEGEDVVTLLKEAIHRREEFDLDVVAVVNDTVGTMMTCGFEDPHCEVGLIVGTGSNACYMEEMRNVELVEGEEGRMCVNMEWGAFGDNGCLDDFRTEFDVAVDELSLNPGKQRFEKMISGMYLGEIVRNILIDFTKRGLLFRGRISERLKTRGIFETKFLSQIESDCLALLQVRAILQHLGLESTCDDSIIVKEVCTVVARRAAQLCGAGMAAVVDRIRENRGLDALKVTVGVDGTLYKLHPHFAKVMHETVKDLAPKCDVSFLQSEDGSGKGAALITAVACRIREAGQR", "test": "co-immunoprecipitation with anti-Flag from transfected PC3 cells, Western blot and densitometry (AU)"}, "[2]": {"target": "T1, hexokinase-II (HK-II), endogenous in …", "test": "affinity chromatography of PC3 cell extracts on beads-coupled MFF peptide #8, Western blot of bound proteins"}, "[3]": {"target": "T2, VDAC1 (endogenous, in PC3 cell extracts) (human, UniProt P21796 2-283)", "T2 construct": "also called voltage-dependent anion channel-1", "T2 sequence (P21796 2-283 limits assumed)": "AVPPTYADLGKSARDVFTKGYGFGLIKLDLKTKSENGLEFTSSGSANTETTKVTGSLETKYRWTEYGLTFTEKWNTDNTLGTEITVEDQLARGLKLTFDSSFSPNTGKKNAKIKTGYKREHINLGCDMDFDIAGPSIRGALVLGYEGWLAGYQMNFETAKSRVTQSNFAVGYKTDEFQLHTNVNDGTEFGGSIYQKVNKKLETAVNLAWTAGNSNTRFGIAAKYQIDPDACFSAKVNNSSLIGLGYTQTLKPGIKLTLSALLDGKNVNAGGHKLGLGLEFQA", "test": "affinity chromatography of PC3 cell extracts on beads-coupled MFF peptide #8, Western blot of bound proteins"}, "[4]": {"target": "T3, hexokinase-I (HK-I), endogenous in PC3 cells (human, UniProt P19367 1-917)", "T3 sequence (looked up)": "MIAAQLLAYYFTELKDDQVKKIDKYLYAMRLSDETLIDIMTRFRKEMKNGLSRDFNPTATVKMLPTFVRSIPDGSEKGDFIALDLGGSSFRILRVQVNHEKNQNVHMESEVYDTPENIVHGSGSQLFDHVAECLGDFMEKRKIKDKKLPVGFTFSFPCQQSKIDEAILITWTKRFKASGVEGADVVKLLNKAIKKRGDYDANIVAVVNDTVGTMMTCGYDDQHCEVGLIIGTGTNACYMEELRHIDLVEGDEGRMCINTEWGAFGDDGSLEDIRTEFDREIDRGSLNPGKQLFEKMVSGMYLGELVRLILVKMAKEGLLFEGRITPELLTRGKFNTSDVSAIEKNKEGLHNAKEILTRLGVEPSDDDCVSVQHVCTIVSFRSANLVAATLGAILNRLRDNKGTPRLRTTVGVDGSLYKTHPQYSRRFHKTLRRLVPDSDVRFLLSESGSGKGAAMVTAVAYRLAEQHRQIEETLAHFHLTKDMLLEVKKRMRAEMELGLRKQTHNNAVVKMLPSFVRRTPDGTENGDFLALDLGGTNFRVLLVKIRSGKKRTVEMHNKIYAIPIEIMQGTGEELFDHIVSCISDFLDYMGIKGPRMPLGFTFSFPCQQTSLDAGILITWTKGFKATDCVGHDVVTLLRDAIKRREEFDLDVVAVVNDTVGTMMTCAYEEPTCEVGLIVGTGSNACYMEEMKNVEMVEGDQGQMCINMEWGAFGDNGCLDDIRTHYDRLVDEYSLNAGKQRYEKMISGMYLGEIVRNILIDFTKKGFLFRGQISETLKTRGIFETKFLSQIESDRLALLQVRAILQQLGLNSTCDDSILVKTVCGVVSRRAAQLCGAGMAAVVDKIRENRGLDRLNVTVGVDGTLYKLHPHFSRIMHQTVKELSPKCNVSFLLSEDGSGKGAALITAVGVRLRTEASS", "test": "affinity chromatography of PC3 cell extracts on beads-coupled MFF peptide #8, Western blot of bound proteins"}, "[5]": {"target": "T4, recombinant full length human VDAC1 (hVDAC1) (human, UniProt P21796 1-283)", "T4 construct": "domain: full length; also called human recombinant VDAC; recombinant VDAC1", "T4 sequence (P21796 whole entry)": "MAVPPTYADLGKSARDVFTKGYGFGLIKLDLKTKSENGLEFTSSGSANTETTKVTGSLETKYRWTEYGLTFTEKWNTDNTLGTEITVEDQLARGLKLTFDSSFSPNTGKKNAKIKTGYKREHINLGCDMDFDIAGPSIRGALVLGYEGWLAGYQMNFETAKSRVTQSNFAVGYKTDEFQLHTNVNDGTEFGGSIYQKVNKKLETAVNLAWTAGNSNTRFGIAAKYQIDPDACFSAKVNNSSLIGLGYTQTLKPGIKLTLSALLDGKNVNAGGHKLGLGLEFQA", "test": "isothermal titration calorimetry, scrambled peptide injected into human recombinant VDAC", "description": "(§1) Isothermal titration calorimetry (ITC). ITC experiments were performed using MlcroCal iTC200 (Malvern). Purified full-length hVDAC1 was buffer-exchanged into 25 mM HEPES-KOH (pH 7.5), 0.1 M KCl, 5% glycerol, 2% n-Octylglucoside, and 1 mM TCEP (ITC buffer). […] The ITC binding experiments were carried out at 20° C. Peptides at a concentration of 100 μM were added by 2.47 μl injections to 10 μM hVDAC1. The data collected was processed in MicroCal Origin software (Malvern)."}, "[6]": {"target": "Dynamin-Related Protein-1 (Drp1), endogenous in PC3 cells (human, UniProt O00429 1-736, limits assumed)", "sequence (O00429 whole entry)": "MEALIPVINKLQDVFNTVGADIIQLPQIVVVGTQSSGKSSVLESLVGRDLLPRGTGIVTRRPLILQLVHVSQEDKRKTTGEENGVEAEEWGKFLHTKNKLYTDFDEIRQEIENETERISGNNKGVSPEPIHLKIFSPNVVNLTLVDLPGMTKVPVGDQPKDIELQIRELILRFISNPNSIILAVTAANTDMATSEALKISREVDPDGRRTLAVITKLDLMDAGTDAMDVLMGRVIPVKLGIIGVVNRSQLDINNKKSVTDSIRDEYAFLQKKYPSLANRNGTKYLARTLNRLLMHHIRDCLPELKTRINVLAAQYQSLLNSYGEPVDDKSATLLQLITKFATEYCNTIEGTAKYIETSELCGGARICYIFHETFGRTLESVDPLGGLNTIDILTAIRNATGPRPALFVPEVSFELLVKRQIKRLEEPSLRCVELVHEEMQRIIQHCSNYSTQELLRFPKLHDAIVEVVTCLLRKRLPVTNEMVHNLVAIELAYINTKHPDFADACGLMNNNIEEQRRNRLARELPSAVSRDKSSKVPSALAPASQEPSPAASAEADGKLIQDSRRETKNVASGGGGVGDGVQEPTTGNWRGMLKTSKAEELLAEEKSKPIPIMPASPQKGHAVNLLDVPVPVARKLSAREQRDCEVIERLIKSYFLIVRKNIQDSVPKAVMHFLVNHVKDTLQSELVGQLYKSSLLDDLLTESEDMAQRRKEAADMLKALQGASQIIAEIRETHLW", "test": "co-immunoprecipitation with anti-Flag from PC3 cells, Western blot"}, "[7]": {"target": "T4, recombinant full length human VDAC1 …", "test": "isothermal titration calorimetry, 100 µM peptide injected into 10 µM hVDAC1, 20 °C", "description": "as §1"}, "[8]": {"target": "T4, recombinant full length human VDAC1 …", "test": "isothermal titration calorimetry, peptide injected into human recombinant VDAC", "description": "as §1"}, "[9]": {"target": "T2, VDAC1 (endogenous, in PC3 cell extracts)", "test": "co-immunoprecipitation with anti-Flag from PC3 cells, Western blot"}, "[10]": {"target": "T3, hexokinase-I (HK-I), endogenous in PC3 …", "test": "co-immunoprecipitation with anti-Flag from PC3 cells, Western blot"}}, "note": "Where a chain is given by its changes, count along the chain named. Names may count otherwise.", "data": [{"binder": "B1", "values": [{"measurement": "binding result", "setting": "[1]", "value": "binds"}]}, {"binder": "B2", "values": [{"measurement": "binding result", "setting": "[1]", "value": "binds"}]}, {"binder": "B3", "values": [{"measurement": "binding result", "setting": "[1]", "value": "binds"}]}, {"binder": "B4", "values": [{"measurement": "binding result", "setting": "[2]", "value": "binds"}, {"measurement": "binding result", "setting": "[3]", "value": "binds"}, {"measurement": "binding result", "setting": "[4]", "value": "binds"}]}, {"binder": "B5", "values": [{"measurement": "binding result", "setting": "[5]", "value": "no binding (tested: molar ratio about 2)"}]}, {"binder": "B6", "values": [{"measurement": "binding result", "setting": "[6]", "value": "no binding"}]}, {"binder": "B7", "values": [{"measurement": "Kd", "setting": "[7]", "value": "~12", "unit": "µM"}, {"measurement": "Kd", "setting": "[8]", "value": 12, "unit": "µM"}]}, {"binder": "B8", "values": [{"measurement": "binding result", "setting": "[9]", "value": "no binding"}, {"measurement": "binding result", "setting": "[10]", "value": "no binding"}]}]}
